Data from paper PMC7943195.

Experiments:
[1] = target: A. baumannii 19606 PBP1B (Acinetobacter baumannii 19606 (ATCC))
[2] = target: P. aeruginosa PBP1B (Pseudomonas aeruginosa)

| Substance | fold stimulation of the glycosyltransferase rate (dansyl-lipid II assay) with 0.5 µM LpoP^Ab(sol), Triton X-100-solubilised PBP1B^Ab [1] [fold] | fold increase of the final FRET with 2 µM LpoP^Pa(sol), PBP1B^Pa in liposomes [2] [fold] | fold increase of the final FRET with 2 µM LpoP^Pa(sol), Triton X-100-solubilised PBP1B^Pa [2] [fold] |
| --- | --- | --- | --- |
| A. baumannii 19606 LpoP(sol) (natural protein) | 3.3 |  |  |
| P. aeruginosa LpoP(sol) (natural protein) |  | 2.2 | 2.1 |
